Results reported in PMC11362013, “Mechanism for controlled assembly of transcriptional condensates by Aire” (Nature Immunology, 2024).

Assays:
[1] = molecular target: FAM-labeled H3 peptide (aa 1-21) with no modification (UniProt P68431); assay: fluorescence polarisation; 50 nM fluorescein-labeled H3 peptide, increasing PHD (0-900 μM) in SEC Buffer (25 mM HEPES pH 7.5, 100 mM NaCl, 5 mM BME), 25 °C; simple binding isotherm
[2] = molecular target: FAM-labeled H3 peptide (aa 1-21) with K4me1 (UniProt P68431); assay: as above
CBP TAZ2 [3] = molecular target: T1, CBP TAZ2 (mouse, UniProt P45481 1764-1855); assay: ITC; two-site model, second site
T1 chain: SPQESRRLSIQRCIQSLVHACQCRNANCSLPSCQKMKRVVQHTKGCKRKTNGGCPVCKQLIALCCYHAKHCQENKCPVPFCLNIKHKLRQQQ

CBP TAZ2 [4] = molecular target: T2, CBP TAZ2 (mouse, UniProt P45481 1764-1855); assay: ITC; 760 μM mouse Aire CTT in the syringe, 19-76 μM TAZ2 in the cell; 20 °C; 20 mM HEPES pH 7.5, 100 mM NaCl, 1 mM dithiothreitol; two-site binding model; details: both partners purified
T2 construct: the recombinant construct itself is described in the Supplementary Note; also called isolated CBP TAZ2; recombinant CBP TAZ2; source: E. coli, purified (details in the Supplementary Note)
T2 sequence (looked up): T1 chain

CHD4 PHD2 (domain or fragment) showed a Kd [1] of 45.3 µM.

mouse Aire PHD1 (domain or fragment) showed a Kd [1] of 5.25 µM and a Kd [2] of 23.2 µM.

B1: mouse Aire CTT (aa 480-552) (domain or fragment, UniProt Q9Z0E3 480-552, looked up)
chain: TPTPGTPGEAVPTSGPRPAPGLAKVGDDSASHDPVLHRDDLESLLNEHSFDGILQWAIQSMSRPLAETPPFSS
notes: Aire (autoimmune regulator), mouse, C-terminal tail (CTT), residues 480-552; Used in NMR (15N13C-labelled) and ITC; whether tags were left on it is told only in the Supplementary Note; also called isolated CTT; source: E. coli, purified (details in the Supplementary Note)
For B1, the Kd (CBP TAZ2 [3]) was 39.7 µM, the “Kd of the high-affinity site (two-site model)” value (CBP TAZ2 [4]) was 0.26 µM and the “Kd of the second, low-affinity site (two-site model)” value (CBP TAZ2 [4]) was 40 µM.
